Results published in article PMC6123407.

Legend:
Assay in all cases: purified protein
purified protein [1] = substrate: CC(C)(COP(=O)(O)OP(=O)(O)OC[C@H]1O[C@@H](n2cnc3c(N)ncnc32)[C@H](O)[C@@H]1OP(=O)(O)O)[C@@H](O)C(=O)NCCC(=O)NCCSC(=O)/C=C/c1ccc(O)cc1; details: 100 μM agmatine sulphate, 50 mM Tris-HCl pH 7.5, room temperature, apparent Km, acyl-donor
purified protein [2] = substrate: COc1cc(/C=C/C(=O)SCCNC(=O)CCNC(=O)[C@H](O)C(C)(C)COP(=O)(O)OP(=O)(O)OC[C@H]2O[C@@H](n3cnc4c(N)ncnc43)[C@H](O)[C@@H]2OP(=O)(O)O)ccc1O; details: 100 μM agmatine sulphate, 50 mM Tris-HCl pH 7.5, room temperature, apparent Km, acyl-donor
purified protein [3] = substrate: N=C(N)NCCCCN; details: 100 μM p-coumaroyl-CoA, 50 mM Tris-HCl pH 7.5, room temperature, apparent Km, acyl-acceptor
purified protein [4] = substrate: NCCCCN; details: 100 μM p-coumaroyl-CoA, 50 mM Tris-HCl pH 7.5, room temperature, apparent Km, acyl-acceptor

B1: HvACT1 (agmatine coumaroyltransferase, ACT) (Hordeum vulgare) (protein)
chain: MKITVHSSKAVKPEYGACGLAPGCTADVVPLTVLDKANFDTYISVIYAFHAPAPPNAVLEAGLGRALVDYREWAGRLGVDASGGRAILLNDAGARFVEATADVALDSVMPLKPTSEVLSLHPSGDDGPEELMLIQVTRFACGSLVVGFTTQHIVSDGRSTGNFFVAWSQATRGAAIDPVPVHDRASFFHPREPLHVEYEHRGVEFKPCEKAHDVVCGADGDEDEVVVNKVHFSREFISKLKAHASAGAPRPCSTLQCVVAHLWRSMTMARGLDGGETTSVAIAVDGRARMSPQVPDGYTGNVILWARPTTTAGELVTRPVKHAVELISREVARINDGYFKSFIDFANSGAVEKERLVATADAADMVLSPNIEVDSWLRIPFYDMDFGGGRPFFFMPSYLPVEGLLILLPSFLGDGSVDAYVPLFSRDMNTFKNCCYSLD
Km (purified protein [1]): 1.1 ± 0.12 µM | kcat (purified protein [1]): 39 s⁻¹ | kcat/Km (purified protein [1]): 3.5e+07 M⁻¹ s⁻¹ | Km (purified protein [2]): 2.0 ± 0.14 µM | kcat (purified protein [2]): 18 s⁻¹ | kcat/Km (purified protein [2]): 9e+06 M⁻¹ s⁻¹ | Km (purified protein [3]): 1.7 ± 0.13 µM | kcat (purified protein [3]): 38 s⁻¹ | kcat/Km (purified protein [3]): 2.2e+07 M⁻¹ s⁻¹ | Km (purified protein [4]): 7,200 ± 530 μM | kcat (purified protein [4]): 4.7 s⁻¹ | kcat/Km (purified protein [4]): 650 M⁻¹ s⁻¹
